Test results as given in the supplement of paper PMC10567573.

B1: SCNN1D (parent)
chain: RRPSPVLRHLELLDEFARENIDSL
B2: PTPLAD1 (parent)
chain: YINFRHLYKQRRRRYGQKKKKIH

Variants of: B1
Experiment: protein stability index of a GFP-peptide fusion (GPS, HEK-293T) (PSI 1-6); higher = more stable
Conditions: c terminus: a fixed tail appended
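Also: lentivirally expressed fusions sorted by FACS into six bins by GFP to DsRed ratio, PSI derived from sequencing read proportions per bin multiplied by bin number.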

Protein stability index: each site, then its substitutions
I21: F 2.74, G 3.38, H 3.61, K 3.36, L 2.95, M 2.89, N 2.81, P 4.41, Q 3.59, R 2.96, S 3.85, T 2.98, V 2.87, W 1.87, Y 2.34
D22: A 2.97, C 1.7, E 2.99, F 1.57, G 2.41, H 2.87, I 2.15, K 2.97, L 1.55, M 1.47, N 3.12, P 2.22, Q 2.47, R 2.76, S 2.42, T 2.18, V 2.03, W 1.68, Y 1.8
S23: A 2.07, C 2.5, D 2.57, E 2.92, F 1.74, G 3.33, H 2.7, I 2.26, K 3.56, L 2.72, M 2.56, N 2.94, P 2.99, Q 2.27, R 3.44, T 2.74, V 2.45, W 1.32, Y 2.46
L24: A 3.52, C 2.73, D 3.15, E 3.25, F 2.07, G 3.06, H 2.88, I 2.46, K 3.29, M 2.4, N 3.29, P 3.19, Q 3.23, R 3.17, S 3.04, T 3.3, V 2.67, W 2.06, Y 2.55

Variants of: B2
Experiment: as above
Conditions: c terminus: native

Protein stability index of substitutions, site by site:
Y1: A 2.93, C 1.59, D 3.48, E 2.5, G 2.01, H 2.9, I 1.17, K 1.94, L 1.79, N 2.97, P 1.93, Q 2.24, R 1.35, S 3.15, T 2.25, V 2.1, W 2.96
I2: A 2.7, C 2.2, D 3.45, F 3.06, G 2.19, H 1.29, K 2.27, L 3.44, M 2, N 3.6, P 2.9, Q 3.45, R 2.05, S 2.53, V 1.97, Y 2.1
N3: A 1.9, C 1.57, D 2.39, E 1.61, F 2.51, H 2.52, I 1.58, K 1.97, L 2.72, P 2.09, Q 1.29, R 4.4, S 2.68, T 2.31, V 1.61, W 1.37, Y 1.71
F4: C 2.03, D 3.02, E 3.23, G 1.9, H 3.71, I 2.43, K 3.29, L 2.87, M 1.74, N 2.29, P 1.64, Q 2.77, R 2.96, S 3.2, T 2.01, W 1.1, Y 1.99
R5: A 2.93, C 1.45, D 2.02, E 3.34, F 2.14, G 1.38, H 1.8, I 1.53, K 2.51, L 1.79, M 1.59, N 1.57, P 2.49, Q 2.3, S 1.17, T 2.38, W 1.55, Y 2.37
H6: A 1.81, C 2.14, E 1.73, F 1.54, G 1.75, K 2.44, L 2.3, M 1.75, P 1.7, S 1.84
